Data published in article PMC6907347.

Biological target: Aβ_(1–40) fibrils (amyloid β peptide 1–40, fibrillar form) (UniProt P05067)
Experiment: SPR; BIAcore 3000, CM5 chip; Aβ 1–40 fibrils immobilised by amine coupling at 2000 RU; ApoE4 injected at 20 μL/min until saturation; degassed PBS pH 7.4, 25 °C

Sequence of Aβ_(1–40) fibrils (amyloid β peptide 1–40, fibrillar form) (P05067 672-711): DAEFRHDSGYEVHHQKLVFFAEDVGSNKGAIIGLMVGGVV

Kd: 5 nM
Substance: recombinant human ApoE4 (Apolipoprotein E, ε4 allele) (from UniProt P02649 19-317) (natural protein)
